Reference: PMC8595650, “Structure of the bacterial flagellar hook cap provides insights into a hook assembly mechanism” (Communications Biology, 2021)
Several values for one entry are separate records, joined by “and”; a condition that tells them apart may be missing. Equal values may be shown once.

Target: the molecule itself
Experiment: cross-linking; purified FlgD with EDC and Sulfo-NHS (molar ratio 1 : 2000) or DTSSP (1 : 50), products on SDS-PAGE

B1: S. enterica FlgD (flagellar hook cap protein, 232 amino acid residues) (natural protein)
chain: MSIAVNMNDPTNTGVKTTTGSGSMTGSNAADLQSSFLTLLVAQLKNQDPTNPLQNNELTTQLAQISTVSGIEKLNTTLGAISGQIDNSQSLQATTLIGHGVMVPGTTILAGKGAEEGAVTSTTPFGVELQQPADKVTATITDKDGRVVRTLEIGELRAGVHTFTWDGKQTDGTTVPNGSYNIAITASNGGTQLVAQPLQFALVQGVTKGSNGNLLDLGTYGTTTLDEVRQII
notes: Separates on gel filtration into a pentamer and a monomer fraction; A seleno-methionine form (E. coli B834(DE3)) was used for phasing only; also called full-length FlgD; source: E. coli BL21(DE3)pLysS, purified (Q-Sepharose, Butyl-Sepharose, Superdex 200)
  stoichiometry N: 5 and 10
